Test: soluble on expression in E. coli; label from the status in PepcDB or PDB records

| Sequence | soluble on expression in E. coli |
| --- | --- |
| MNNTPKLKLGIVAVSRDCFPMELSENRRKAVVDAYNGEIFECLTTVENEKDMRKALKEVKSAGVNALVVYLGNFGPETPETLIAKEFDGPVMFAAAAEERGDNLVNGRGDAYCGMLNASYNLALRNINAYIPEYPVGTASDVANMINEFVPVATALIGLKNLKIISFGPRPQDFLACNAPIKQLYNLGVEIEENSELDLFASFNEHENDSRIPDVVKDMEEELGEGNKMPGILPKLAQYELTLLDWAEEHKGSREYVVFANKCWPAFQTQFGCVPCYVNSRLTARGIPVSCEVDIYGALSEYIGTCVSQDVVTLLDINNTVPKDMYESEIKSKFNYTLKDTFMGFHCGNTAACKLTSGTMKNQMIMARALEPNQEPNITRGTLEGDIVPGEITFFRLQSNADSELTAYVAEGEVLPVKTRSFGSIGVFAIPQMGRFYRHVLIENRFPHHGAVAFGHFGKAIYNLFRYLGVKEVGFNRPKEMLYKTENPFELEHHHHHH | soluble |
| MGSDKIHHHHHHMEFPGVKALDDVHFSVKRGEIHALVGANGAGKSTLMKVLAGAYASYEGTILFDGVPLAIDSPNAAKRAGIEIVYQEVDTALVDYLTVAENICLDMLASGQLKGVIRRRRYEEIAERALQKLKASIDVRQRVSELRLAEKQLVLIARALVQESRFLILDEPTAPLSGRETEQLFRIIRELAEKEHLGVIFISHRLQELFEICESISVMRDGKMVSRQLLAGQTKETVVEQMLGRRLQKSSREARPAGAPSLELDRITVAGQLDEISLTVRAGEVIGIAGLVGAGKTELCKTIFGSIPVTSGLMRLAGETRRIRSAYDAVRLGIGLVPEERRKEGILVADPIEQNMTAASLKQFVNRFGFVEKKKERAAANRIVQQLSIKVSDTRQRAAELSGGNQQKVAIGKWLLADASVLVLDEPTKGVDVGAKAEIFQVIDQLAAEQKAVIYASSELDELLAVTDRIYVMYDGQIVFEATTSETTEEQLLWYATGGQQHE | not soluble |
| MGHHHHHHSHPQDNDFLSRKAQDCYFMKLHHCPGNHSWDSTISGSQRAAFCDHKTTPCSSAIINPLSTAGNSERLQPGIAQQWIQSKREDIVNQMTEACLNQSLDALLSRDLIMKEDYELVSTKPTRTSKVRQLLDTTDIQGEEFAKVIVQKLKDNKQMGLQPYPEILVVSRSPSLNLLQNKSM | not soluble |
| ESVLTQPPSVSGAPGQRVTISCTGSSSNIGAGYDVHWYQQLPGTAPKLLISGNSNRPSGVPDRFSGSKSGTSASLAITGLQAEDEADYYCQSYDSSLSGSVFGGGTKLTVLGQPKAAPSVTLFPPSSEELQANKATLVCLISDFYPGAVTVAWKADSSPVKAGVETTTPSKQSNNKYAASSYLSLTPEQWKSHRSYSCQVTHEGSTVEKTVAPTECS | soluble |
| MAHHHHHHMKTFIGHFNNNALFSRNSFTNKSLRARKYTKNILSLKNLIYSSFFLYSTMNKVIGTHSGRFHTDEILATVMLKFLPEYKDAKIIRTRDQTKLDTCDIVVDVGGVYDHENKRYDHHQKEFEGTLDDKHTIRLSSAGLIYKHYGKEVLRKGFSITDEEKINVLYEKLYTSFIESVDALDNGINQYEGQPKYQINTTIQCRVNRFNPTFLEDDVDENERFMEAAKIVKQEFVHFVTYYSDVWYMAKSIVRESILDRFNFHKSGRVIYLQKYCPYTEHLYDLEQELNIQDEILYCIYSDRYNNFRCTAISKKNEPFVLRLPFPASFRGLKDEQLQTVSKIPGLTFVHYSGFTSAGENIESLVKLVEASLKENNIVY | not soluble |
| GMQGIAFQDAYPDDLSHCYGCGRNNEQGHQLKSYWRGEQTIAHFMPKPFHTAIPGFVYGGLIASLIDCHGTGSASAAAQRALEQAGEQLDEPPRFVTAALNIDYLAPTPMGVELELVGEIKEVKPRKVVVEIALSADGKLCARGHMVAVKMPETMAATSA | soluble |
| FESGLDLSDAEPDAGEATAYASKDLEEQLRSVSSVDELMTVLYPEYWKMYKCQLRKGGWQHNREQANLNSRTEETIKFAAAHYNTEILKSIDNEWRKTQCMPREVCIDVGKEFGVATNTFFKPPCVSVYRCGGCCNSEGLQCMNTSTSYLSKTLFEITVPLSQGPKPVTISFANHTSCRCMSKLDVYRQVHSIIRRSLPATLPQCQAANKTCPTNYMWNNHICRCLAQEDFMFSSDAGDDSTDGFHDICGPNKELDEETCQCVCRAGLRPASCGPHKELDRNSCQCVCKNKLFPSQCGANREFDENTCQCVCKRTCPRNQPLNPGKCACECTESPQKCLLKGKKFHHQTCSCYRRPCTNRQKACEPGFSYSEEVCRCVPSYWKRPQMS | not soluble |
| WLEPYMTSVASVKDLSKINLVEALNARLGWPLNQHLDEWLPEHYQLPTGTKKRIRYQHGHEPVLSVRMQEVFGESTSPTVALGRKRLVLELLSPAQRPLQVTSDLAAFWNGSYKDVQKEMKGRYPKHVWPDDPANHVATTKTKRQLNND | not soluble |

Source: the DeepSol protein solubility set
